The nature of one series: Number and Brightness. The conditions noted are these: other: Number and Brightness (N&B) analysis.
The target in series [1] is GFP-FR (Folate Receptor), GPI-anchored, in MDCK cells. The series is described as follows: Number and Brightness.
The next series deals with GFP-FR, in CHO cells. The series is described as follows: Number and Brightness.

From paper PMC4027978 come the findings set out here.

Consider “GFP-FR (Folate Receptor), GPI-anchored, in MDCK cells”, for which the “percent of GFP-FR in aggregates of three-four molecules” value in “Number and Brightness” was “about 30-35% of GFP-FR”. Also, in series [1], the average B value (brightness) is 1.29.
GFP-FR, in CHO cells: in the series with GFP-FR, in CHO cells, the average B value (brightness) was 1.36 and the percent of GFP-FR in clusters of 3 to 4 or 5 molecules amounted to 50%.
